Experiment [1] deals with LapD (Pseudomonas fluorescens Pf0-1), full-length, non-fluorescent, detergent-solubilized (Pseudomonas fluorescens Pf0-1) (UniProt Q3KK31). Kind of experiment: SEC-MALS; LapD incubated with LapG and c-di-GMP; c-di-GMP omitted from the mobile phase. Background: In gel filtration, larger molecules generally elute earlier.
The target is the same in experiment [2]. Kind of experiment: SEC-MALS; LapD (~28 μM) incubated with 100 μM c-di-GMP, concentrated ~5-fold; 20 μM c-di-GMP in the mobile phase.
Experiment [3] has the same target. Kind of experiment: SEC-MALS; LapD incubated with 100 μM c-di-GMP and a 3-fold molar excess of LapG over LapD dimer, concentrated; 20 μM c-di-GMP in the mobile phase.
The target is the same in experiment [4]. Kind of experiment: SEC-MALS; apo protein, ~10 mg/ml (~140 μM), Superdex 200 10/300; 25 mM Tris-HCl pH 7.6, 250 mM NaCl, 0.005% LMNG, 0.04% CHAPS; protein-conjugate analysis.
Experiment [5] addresses LapG labeled with Oregon Green 488 maleimide at C135 (Pseudomonas fluorescens Pf0-1). Put plainly: fluorescence polarisation; fluorescence anisotropy; 1 µM Oregon Green 488-labeled LapG fixed, detergent-solubilized LapD titrated 1–36 µM; without c-di-GMP; apparent. (Fluorescence polarisation rises when a labelled molecule tumbles more slowly, as on binding a larger partner.)

Experiment [6] shares this target. Put plainly: fluorescence polarisation; fluorescence anisotropy; 1 µM Oregon Green 488-labeled LapG fixed, detergent-solubilized LapD titrated 1–36 µM; with 100 µM c-di-GMP; apparent.
In experiment [7] the target is LapD^TMcys lacking sfGFP (non-fluorescent; C304A, C397S) (Pseudomonas fluorescens Pf0-1) (UniProt Q3KK31). Put plainly: SEC-MALS; apo protein, ~10 mg/ml (~140 μM), Superdex 200 10/300; 25 mM Tris-HCl pH 7.6, 250 mM NaCl, 0.005% LMNG, 0.04% CHAPS; protein-conjugate analysis.
The target of experiment [8] is LapD^TMcys-A602C lacking sfGFP (non-fluorescent) (Pseudomonas fluorescens Pf0-1) (UniProt Q3KK31). Described as above.
Experiment [9] concerns the target LapD–sfGFP (native LapD with C-terminal monomeric superfolder GFP) (Pseudomonas fluorescens Pf0-1) (UniProt Q3KK31). The experiment is described as above.

By stoichiometry N is commonly meant a count of units in the complex or per binding partner.

Where “and” joins values, the source holds several entries; their conditions need not be identical. Equal entries are not always repeated.

For the substance “LapD (Pseudomonas fluorescens Pf0-1), full-length, non-fluorescent, detergent-solubilized (from UniProt Q3KK31 1-648) (receptor)”, the stoichiometry N is 2 in experiment [1]; 4 and 2 in [2]; 4 in experiment [3]; 2 in experiment [4]. The Kd was found to be 11.7 µM in [5] and 1900 nM in [6].

On to “LapD^TMcys lacking sfGFP (non-fluorescent; C304A, C397S) (from UniProt Q3KK31 1-648) (receptor)”, for which the stoichiometry N in experiment [7] was found to be 2.

As for “LapD^TMcys-A602C lacking sfGFP (non-fluorescent) (from UniProt Q3KK31 1-648) (receptor)”, in [8], the stoichiometry N came to 2.

For “LapD–sfGFP (native LapD with C-terminal monomeric superfolder GFP) (from UniProt Q3KK31 1-648) (receptor)”, the stoichiometry N in experiment [9] turned out to be 2.

For the origin of these results see PMC5231407.
